In the RNAGym collection of RNA variant scans (doi:10.7554/elife.80360):

B1: Twister Ribozyme (parent)
chain: AACACUGCCAAUGCCGGUCCCAAGCCCGGAUAAAAGUGGAGGGGGCGG

Variants of: B1
Assay: self-cleavage, relative activity (ratio to wild type); higher = more cleavage; co-transcriptional

Row | Variant | self-cleavage
1 | AACACUGCCAAUGCCGGUCGCAAGCUCGGAUAAAAGUGGAGGGGGCGG [C20G C26U] | 0.0527
2 | AACACUGCCAAUGCCGGUCGCAAGCCCGGAUAAAAGUGGAGGGGGGGG [C20G C46G] | 0.126
3 | AACACUGCCAAUGCCGGUCGCAAACCCGGAUAAAAGUGGAGGGGGCGG [C20G G24A] | 0.109
4 | AACACUGCCAAUGCCGGUCGCAACCCCGGAUAAAAGUGGAGGGGGCGG [C20G G24C] | 0.123
5 | AACACUGCCAAUGCCGGUCGCAAUCCCGGAUAAAAGUGGAGGGGGCGG [C20G G24U] | 0.0899
6 | AACACUGCCAAUGCCGGUCGCAAGCCCAGAUAAAAGUGGAGGGGGCGG [C20G G28A] | 0.141
7 | AACACUGCCAAUGCCGGUCGCAAGCCCCGAUAAAAGUGGAGGGGGCGG [C20G G28C] | 0.171
8 | AACACUGCCAAUGCCGGUCGCAAGCCCGAAUAAAAGUGGAGGGGGCGG [C20G G29A] | 0.189
9 | AACACUGCCAAUGCCGGUCGCAAGCCCGUAUAAAAGUGGAGGGGGCGG [C20G G29U] | 0.146
10 | AACACUGCCAAUGCCGGUCGCAAGCCCGGAUAAAAAUGGAGGGGGCGG [C20G G36A] | 0.0839
11 | AACACUGCCAAUGCCGGUCGCAAGCCCGGAUAAAAGUGGAAGGGGCGG [C20G G41A] | 0.0636
12 | AACACUGCCAAUGCCGGUCGCAAGCCCGGAUAAAAGUGGACGGGGCGG [C20G G41C] | 0.0754
13 | AACACUGCCAAUGCCGGUCGCAAGCCCGGAUAAAAGUGGAGAGGGCGG [C20G G42A] | 0.083
14 | AACACUGCCAAUGCCGGUCGCAAGCCCGGAUAAAAGUGGAGCGGGCGG [C20G G42C] | 0.791
15 | AACACUGCCAAUGCCGGUCGCAAGCCCGGAUAAAAGUGGAGUGGGCGG [C20G G42U] | 0.386
16 | AACACUGCCAAUGCCGGUCGCAAGCCCGGAUAAAAGUGGAGGAGGCGG [C20G G43A] | 0.0749
17 | AACACUGCCAAUGCCGGUCGCAAGCCCGGAUAAAAGUGGAGGGCGCGG [C20G G44C] | 0.0871
18 | AACACUGCCAAUGCCGGUCGCAAGCCCGGAUAAAAGUGGAGGGGCCGG [C20G G45C] | 0.136
19 | AACACUGCCAAUGCCGGUCGCAAGCCCGGAUAAAAGUGGAGGGGGCGA [C20G G48A] | 0.124
20 | AACACUGCCAAUGCCGGUCGCAAGCCCGGAUAAAAGUGGAGGGGGCGU [C20G G48U] | 0.12
21 | AACACUGCCAAUGCCGGUCGCAAGCCCGGAUAAAAGGGGAGGGGGCGG [C20G U37G] | 0.0665
22 | AACACUGCCAAUGCCGGUCUCGAGCCCGGAUAAAAGUGGAGGGGGCGG [C20U A22G] | 0.119
23 | AACACUGCCAAUGCCGGUCUCUAGCCCGGAUAAAAGUGGAGGGGGCGG [C20U A22U] | 0.543
24 | AACACUGCCAAUGCCGGUCUCAUGCCCGGAUAAAAGUGGAGGGGGCGG [C20U A23U] | 0.17
25 | AACACUGCCAAUGCCGGUCUCAAGCCCGGCUAAAAGUGGAGGGGGCGG [C20U A30C] | 0.533
26 | AACACUGCCAAUGCCGGUCUCAAGCCCGGGUAAAAGUGGAGGGGGCGG [C20U A30G] | 0.823
27 | AACACUGCCAAUGCCGGUCUCAAGCCCGGUUAAAAGUGGAGGGGGCGG [C20U A30U] | 1.05

Row | Variant | self-cleavage
28 | AACACUGCCAAUGCCGGUCUCAAGCCCGGAUACAAGUGGAGGGGGCGG [C20U A33C] | 0.894
29 | AACACUGCCAAUGCCGGUCUCAAGCCCGGAUAGAAGUGGAGGGGGCGG [C20U A33G] | 0.988
30 | AACACUGCCAAUGCCGGUCUCAAGCCCGGAUAACAGUGGAGGGGGCGG [C20U A34C] | 0.0697
31 | AACACUGCCAAUGCCGGUCUCAAGCCCGGAUAAACGUGGAGGGGGCGG [C20U A35C] | 0.881
32 | AACACUGCCAAUGCCGGUCUCAAGCCCGGAUAAAUGUGGAGGGGGCGG [C20U A35U] | 1.08
33 | AACACUGCCAAUGCCGGUCUCAAGCCCGGAUAAAAGUGGGGGGGGCGG [C20U A40G] | 0.149
34 | AACACUGCCAAUGCCGGUCUCAAGCCCGGAUAAAAGUGGUGGGGGCGG [C20U A40U] | 0.125
35 | AACACUGCCAAUGCCGGUCUCAAGGCCGGAUAAAAGUGGAGGGGGCGG [C20U C25G] | 0.088
36 | AACACUGCCAAUGCCGGUCUCAAGUCCGGAUAAAAGUGGAGGGGGCGG [C20U C25U] | 0.545
37 | AACACUGCCAAUGCCGGUCUCAAGCGCGGAUAAAAGUGGAGGGGGCGG [C20U C26G] | 0.0973
38 | AACACUGCCAAUGCCGGUCUCAAGCCAGGAUAAAAGUGGAGGGGGCGG [C20U C27A] | 0.171
39 | AACACUGCCAAUGCCGGUCUCAAGCCGGGAUAAAAGUGGAGGGGGCGG [C20U C27G] | 0.0816
40 | AACACUGCCAAUGCCGGUCUCAAGCCUGGAUAAAAGUGGAGGGGGCGG [C20U C27U] | 0.708
41 | AACACUGCCAAUGCCGGUCUCAAACCCGGAUAAAAGUGGAGGGGGCGG [C20U G24A] | 0.0805
42 | AACACUGCCAAUGCCGGUCUCAAGCCCAGAUAAAAGUGGAGGGGGCGG [C20U G28A] | 0.809
43 | AACACUGCCAAUGCCGGUCUCAAGCCCCGAUAAAAGUGGAGGGGGCGG [C20U G28C] | 0.774
44 | AACACUGCCAAUGCCGGUCUCAAGCCCGCAUAAAAGUGGAGGGGGCGG [C20U G29C] | 0.305
45 | AACACUGCCAAUGCCGGUCUCAAGCCCGUAUAAAAGUGGAGGGGGCGG [C20U G29U] | 0.921
46 | AACACUGCCAAUGCCGGUCUCAAGCCCGGAUAAAAAUGGAGGGGGCGG [C20U G36A] | 0.216
47 | AACACUGCCAAUGCCGGUCUCAAGCCCGGAUAAAAGUAGAGGGGGCGG [C20U G38A] | 0.802
48 | AACACUGCCAAUGCCGGUCUCAAGCCCGGAUAAAAGUCGAGGGGGCGG [C20U G38C] | 0.841
49 | AACACUGCCAAUGCCGGUCUCAAGCCCGGAUAAAAGUGAAGGGGGCGG [C20U G39A] | 0.288
50 | AACACUGCCAAUGCCGGUCUCAAGCCCGGAUAAAAGUGGAAGGGGCGG [C20U G41A] | 0.124
51 | AACACUGCCAAUGCCGGUCUCAAGCCCGGAUAAAAGUGGAUGGGGCGG [C20U G41U] | 0.141
52 | AACACUGCCAAUGCCGGUCUCAAGCCCGGAUAAAAGUGGAGAGGGCGG [C20U G42A] | 0.935
53 | AACACUGCCAAUGCCGGUCUCAAGCCCGGAUAAAAGUGGAGUGGGCGG [C20U G42U] | 0.399
54 | AACACUGCCAAUGCCGGUCUCAAGCCCGGAUAAAAGUGGAGGAGGCGG [C20U G43A] | 0.177
